One test deals with T1, Cynomolgus monkey CDCP1 (Macaca fascicularis, UniProt A0A2K5VLA8).
T1 construct: recombinant ectodomain from CHO cells; construct not given; also called cyCDCP1; BBP468
Nature of the test: Octet BLI, Ab on Protein A sensor, recombinant CDCP1 analyte.

Test [1] concerns the target T2, recombinant human CDCP1 ECD (AA30-667) with C-terminal His tag (human, UniProt Q9H5V8 30-667).
T2 construct: range 30-667; also called FL-ECD; recombinant FL-ECD
The test is described as above.
Experimental: (§1) Affinity: The affinity of antibodies to various recombinant CDCP1 molecules was determined on an Octet Red (Pall, ForteBio) instrument. After loading reagents into a 96-well plate, the Octet Red with Protein A-conjugated biosensors was programmed as follows: 30 seconds for baseline #1; 120 seconds to immobilize the antibody; 30 seconds for baseline #2; 300 seconds for association of antibody to recombinant CDCP1; and 300-600 seconds for dissociation of recombinant CDCP1 from the antibody.

For test [2], the target named is human CDCP1 endogenously expressed on cancer cell lines (human, UniProt Q9H5V8 30-836). Nature of the test: cell-based or functional assay.
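Wherever Kd is given: antibody captured for 120 s on the sensor, followed by 300 s association with CDCP1 and a 300–600 s dissociation phase.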

Experimental for Cynomolgus monkey CDCP1: as §1

B1: 42C5 (antibody, V domains shown)
VH: EVQLVESGGGLVQPGGSLRLSCAASGFTFSRYWMNWVRQAPGKGLEWVANIKQDGSEKDYVDSVKGRFTISRDNAKNSLFLQMSSLRAEDTAVYYCARVMYSSGWSFDYWGQGTLVTVSS
VL: DIVMTQSPLSLPVTPGEPASISCRSSRSLLHSSGYNFLDWFLQKPGQSPQLLIFLGSDRASGVPDRFSGSGSGTDFTLKISRVETEDVGVYYCMQALQTPITFGQGTRLEIK
With B1, the Kd with Cynomolgus monkey CDCP1 turned out to be 0.012 µM; in test [1], 0.002 µM.

B2: 47G7 (antibody, human IgG1, V domains shown)
VH: EVQLVESGGGLVQPGGSLRLSCAASGFTFSSYWMSWVRQAPGKGLEWVANIKQDGSEKDYVDSVKGRFTISRDNAKNSLYLQMNSLRVEDTAVYYCAREGGSSGWTFDYWGQGTLVTVSS
VL: DIVMTQSPLSLPVTPGEPASISCRSSQSLLHSSGHNFLDWYLQKPGQSPQLLIYLGSNRASGVPDRFSGSGSGTDFTLKISRVEAEDVGVYYCMQALQTPPTFGQGTKLEIK
notes: also called human antibody 47G7
Turning to B2, the Kd with Cynomolgus monkey CDCP1 is 0.5 µM; in test [1], 0.035 µM.

B3: 02F3 (antibody, V domains shown)
VH: QVQLVESGGGVVQPGRSLRLSCAASGFSFSDYGIHWVRQAPGKGLEWVAVIWYDGSNKYYADSVKGRFTISRDNSKNTLYLQVNSLIAEDTAVYYCARDRGYSSGWYVDYYYYGMDVWGQGTTVTVSS
VL: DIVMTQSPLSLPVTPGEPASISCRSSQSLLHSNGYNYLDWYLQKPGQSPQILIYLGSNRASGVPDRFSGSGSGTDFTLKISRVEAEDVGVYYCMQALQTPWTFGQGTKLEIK
Take B3: the Kd in the test with Cynomolgus monkey CDCP1 came to 0.083 µM; in test [1], 0.008 µM.

B4: 12C2 (antibody, V domains shown)
VH: QEQLVESGGGVVQPGRSLRLSCVTSGFTFSSYGMHWVRQAPGKGLEWVAVIWYDGTNKYYADTVKGRFTISRDNSKNTLYLQMNSLRAEDTGVYYCAREGCDTISCPYYYYGMDVWGQGTTITVSS
VL: DILMTQSPSSLSASVGDRVTITCRASQGINYYLAWYQQKPGKVPKLLIYTASTLQSGVPSRFSGSGSGTDFTLTISSLQPEDVATYFCQKYNSAPFTFGPGTKLEIK
In the case of B4, the equilibrium dissociation constant (Kd) with Cynomolgus monkey CDCP1 amounted to 0.008 µM; in test [1] it was 0.001 µM.

B5: 03C05 (antibody, V domains shown)
VH: EVQVLESGGGLVQPGGSLRLSCAASGFTFSSYVMSWVRQAPGKGLEWVSGISGSGGSTHYADSVKGRFTISRDNSKNTLYLQMNSLRAEDTALYYCAQQWPQGYWGQGTLVTVSS
VL: DIQMTQSPSSLSASVGDRVTITCRASQDISIYLAWFQQKPGKVPKVLIYAASTLQSGVPSRFSGSGTGTDFTLTISSLQPEDVATYFCQKYNSAPFTFGPGTKLEIK
notes: also called 3C5
Regarding B5, the equilibrium dissociation constant (Kd) was determined as 0.08 µM with Cynomolgus monkey CDCP1 and 0.02 µM in test [1].

B6: 14H4 (antibody, V domains shown)
VH: EVQLLESGGDLVQPGGSLRLSCAASGFTFNSYAMSWVRQAPGKGLEWVSVLSGSGGDIHYADSVKGRFTVSRDNSKNMLYLQMNSLRAEDTAVYFCAQQWPQGYWGQGTLVTVSS
VL: DIQMTQSPSSLSASVGDRVTITCRASQGISIYLAWFQQKPGKVPKLLIYAASTLQSGVPSRFSGSGSGTDFTLTISSLQPEDVATYYCQKYNSAPFTFGPGTKVEIK
B6: the Kd in the test with Cynomolgus monkey CDCP1 is 0.005 µM; in test [1], under 0.001 µM.

B7: 05A8 (antibody, V domains shown)
VH: EVQLLESGGGLVQPGGSLRLSCAASGFTFSNYAMSWVRQAPGKGLEWVSAISGRGGSTYYADSVKGRFTISRDNSKNTLYLQMNSLRAEDTAVYYCAKDIVVVPAAKGYVMDAWGQGASVTVSS
VL: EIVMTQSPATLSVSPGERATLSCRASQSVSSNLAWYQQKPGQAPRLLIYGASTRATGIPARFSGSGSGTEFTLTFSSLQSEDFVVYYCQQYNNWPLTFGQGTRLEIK
With B7, the figures for the dissociation constant Kd (with Cynomolgus monkey CDCP1; in test [1]) were 0.018 µM and 0.007 µM, respectively.

B8: 01E2 (antibody, V domains shown)
VH: QVQLVESGGGVVQPGRSLRLSCAASGFTFSSYGMHWVRQAPGKGLEWVAVIWYAGSNKYYADSVKGRFTISRDNSKNTLYLQMNSLRAEDTAVYYCAGWDFDYWGQGTLVTVSS
VL: EIVLTQSPATLSLSPGERATLSCRASQTVPNYLAWYQQKPGQAPRLLIYDASNRATDIPARFSGSGSGTDFTLTISSLEPEDFAVYYCQQRANWPPITFGQGTRLEIK
B8: the Kd with Cynomolgus monkey CDCP1 is over 0.5 µM; in test [1] it was 0.02 µM.

B9: 27H10 (antibody, human IgG1, V domains shown)
VH: QVQLVQSGAEVKKPGSSVKVSCKASGGTFSSYAMSWVRQAPGQGLEWMGGIIPILGTTNYAQKFQGRVTITADKSTSTAYMELSSLRSEDTAVYYCAREGLYAFDIWGQGTMVTVSS
VL: DIQMTQSPSSLSASVGDRVTITCRASQSISSYLNWYQQKPGKAPKFLIYVASSLQSGVPSRFSGRGSGTDFTLTISSLQPEDFATYYCQQSYSTPWTFGQGTKVEIK
notes: also called human antibody 27H10
As to B9, the Kd (with Cynomolgus monkey CDCP1; in test [1]) was 0.045 µM each time.

B10: 10E2 (antibody, V domains shown)
VH: QVQLVESGGGVVQPGRSLRLSCAASGFTFSSYGMHWVRQAPGKGLEWVAVVWYDGTIKYYADSVKGRFTISRDNPKNTLYLQMNSLRAEDTAVYYCASQYSSGWHTDFFDVWGQGTMVTVSS
VL: DIQMTQSPSTLSASVGDRVTITCRASQSISTWLAWYQQKPGKAPKFLIYKASSLESGVPSRFSGSGSGTEFTLTISSLQPDDFATYYCQQYSGYSLTFGGGTKVEIK
notes: also called human antibody 10E2
For B10, the Kd with Cynomolgus monkey CDCP1 is 0.001 µM; in test [1], under 0.001 µM.

B11: 03B05 (antibody, V domains shown)
VH: QVQLVESGGGVVQPGRSLRLSCAASGFTFSSYGMHWVRQAPGKGLEWVAIIWYDGSNKYYADSVKGRFTISRDNSKNTLYLQMNSLRAEDTAVYYCAKDPSYSSGYYLFDFWGQGTLVTVSS
VL: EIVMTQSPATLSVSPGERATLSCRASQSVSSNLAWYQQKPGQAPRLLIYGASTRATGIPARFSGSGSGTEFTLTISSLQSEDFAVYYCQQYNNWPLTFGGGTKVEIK
notes: also called 3B5
Take B11: the Kd with Cynomolgus monkey CDCP1 is 0.075 µM; in test [1] it was 0.017 µM.

B12: 38E11-vcMMAE (other)
VH: EVQLLESGGGLVQPGGSLRLSCAASGFTFSNYAMNWVRQAPGKGLEWVSAISGGGGSTYYADSVKGRFTISRDNSKNTLYLQMNSLRAEDTAVYYCAKESITMVRGVMDYYGMDVWGQGTTVTVSS
VL: DIQLTQSPSFLSASVGDRVTITCRASQGISSYLAWYQQKPGKAPKLLIYAASTLQGGVPSRFSGSGSGTEFTLTISSLQPEDFATYYCQHLNRFPRTFGQGTKVEIK
modifications: maleimidocaproyl-valine-citrulline-p-aminobenzoyloxycarbonyl-MMAE on hinge region cysteine thiols, positions not given; DAR 3.9
Regarding B12, in test [2], the “EC50 of killing, Cal-12T NSCLC cells, CellTiter Glo, 96 hrs” value is over 1 mg/L; the “EC50 of killing, DU145 prostate cancer cells, CellTiter Glo, 96 hrs” value was 1 mg/L; the “EC50 of killing, H1650 NSCLC cells, CellTiter Glo, 96 hrs” value was over 1 mg/L; the “EC50 of killing, HCC15 NSCLC cells, CellTiter Glo, 96 hrs” value is over 1 mg/L. In addition, in test [2], the “EC50 of killing, HCC44 NSCLC cells, CellTiter Glo, 96 hrs” value was over 1 mg/L; the “EC50 of killing, HCC78 NSCLC cells, CellTiter Glo, 96 hrs” value was over 1 mg/L; the “EC50 of killing, HCC827 NSCLC cells, CellTiter Glo, 96 hrs” value is over 1 mg/L; the “EC50 of killing, PC3 prostate cancer cells, CellTiter Glo, 96 hrs” value turned out to be 0.1 mg/L.

B13: 3B11 (antibody, human IgG1, V domains shown)
VH: QVQLQQWDAGLLKPSETLSLTCAVYGGSFSSYYWSWIRQPPGKGLEWIGEINHSGSTSYNPSLKSRVTISIDTSKNQFSLKLNSMTAADTAVYFCAASPYFDYWGQGTLVTVSS
VL: DIQLTQSPSFLSASVGDRVTITCRASQGISSYLAWYQQKPGKAPKLLIYAASTLQSGVPSRFSGSGSGTEFTLTISSLQPEDFATYYCQQLNSYPRTFGQGTKVEIK
notes: also called 03B11; 3B111
Take B13: the dissociation constant Kd in the test with Cynomolgus monkey CDCP1 is over 0.5 µM; in test [1], 0.06 µM.

B14: 50D6 (antibody, V domains shown)
VH: EVQVLESGGGLVQPGGSLRLSCAASGFTFSNYAMNWVRQAPGKGLEWVSAISGGGGSTYYADSVKGRATISRDNSENTLYLQMNSLRAEDTAVYYCAKTSSGWYDSYYDYYGLDVWGQGTTVTVSS
VL: DIQLTQSPSFLSASVGDRVTITCRASQGISNYLAWYQQKPGKVPKLLIYAVSTLQSGVPSRFSGSGSGTEFTLTISSLQPEDFATYYCQQLNSYPFTFGGGTKLEIK
Regarding B14, the dissociation constant (Kd) (with Cynomolgus monkey CDCP1; in test [1]) was under 0.001 µM in each case.

B15: 38E11-PBD (other)
VH: EVQLLESGGGLVQPGGSLRLSCAASGFTFSNYAMNWVRQAPGKGLEWVSAISGGGGSTYYADSVKGRFTISRDNSKNTLYLQMNSLRAEDTAVYYCAKESITMVRGVMDYYGMDVWGQGTTVTVSS
VL: DIQLTQSPSFLSASVGDRVTITCRASQGISSYLAWYQQKPGKAPKLLIYAASTLQGGVPSRFSGSGSGTEFTLTISSLQPEDFATYYCQHLNRFPRTFGQGTKVEIK
modifications: MA-PEG8-VA-PAB-SG3199 (PBD) on hinge region cysteine thiols, positions not given; DAR 2.3
Consider B15, for which, in test [2], the “EC50 of killing, Cal-12T NSCLC cells, CellTiter Glo, 96 hrs” value was over 1 mg/L; the “EC50 of killing, DU145 prostate cancer cells, CellTiter Glo, 96 hrs” value was determined as 0.1 mg/L; the “EC50 of killing, H460 NSCLC cells, CellTiter Glo, 96 hrs” value is about 0.1 mg/L; the “EC50 of killing, H1299 NSCLC cells, CellTiter Glo, 96 hrs” value is over 1 mg/L. Further, in test [2], the “EC50 of killing, H1650 NSCLC cells, CellTiter Glo, 96 hrs” value is about 1 mg/L; the “EC50 of killing, HCC44 NSCLC cells, CellTiter Glo, 96 hrs” value was about 1 mg/L; the “EC50 of killing, HCC827 NSCLC cells, CellTiter Glo, 96 hrs” value is over 1 mg/L; the “EC50 of killing, LNCAP prostate cancer cells, CellTiter Glo, 96 hrs” value was determined as 0.01 mg/L. The “EC50 of killing, PC3 prostate cancer cells, CellTiter Glo, 96 hrs” value in test [2] came to 1 mg/L.

B16: 18C6 (antibody, human IgG1, V domains shown)
VH: QVQLQESGPGQVKPSETLSLTCTVSGGSISSSFWSWIRQPPGKGLEWIGYIYYSESTNYNPSLKRRVTLSVDTSKNQFSLKLTSVTTADTAVYYCARNIGVAGLFDYWGQGTLVTVSS
VL: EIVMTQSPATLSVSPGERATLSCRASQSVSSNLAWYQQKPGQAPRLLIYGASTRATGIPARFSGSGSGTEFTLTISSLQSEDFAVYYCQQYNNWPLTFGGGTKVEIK
notes: also called 18C06; human antibody 18C6
For the molecule B16, the Kd was found to be 0.19 µM with Cynomolgus monkey CDCP1 and 0.025 µM in test [1].

B17: 04G06 (antibody, V domains shown)
VH: QVQLVESGGGVVQPGRSLRLSCVVSGFTLSSYGMHWVRQAPGKGLEWVAVIWYDGSDKYYADSVKGRFTISRDNSKNTLYLQMNSLRAEDTAVYYCARDDWGFDYWGQGTLVTVSS
VL: DIQLTQSPSFLSASVGDRVTITCRASQDISNYLAWYQQKPGKAPKLLISASTLQSGVPSRFSGSGSGTEFILTISSLQPEDFATYYCQHLNSYPFGQGTKVEIK
notes: also called 4G6
In the case of B17, the Kd is 0.027 µM with Cynomolgus monkey CDCP1 and 0.004 µM in test [1].

B18: 41A9 (antibody, human IgG1, V domains shown)
VH: QVQLQQWGAGLLKPSETLSLTCAVYGGSFSDYYWSWIRQPPGKGLEWIGEINHSGSTNYNPSLKSRVTISVDTSKNQFSLKLSSVTAADTAVYYCARDYDVLTGHFYYYYGMDVWGQGTTVTVSS
VL: EIVLTQSPATLSLSPGERATLSCRASQSVRRYLAWYQQKPGQAPRLLIYDASNRATGIPARFSGSGSGTDFTLTISSLEPEDFAVYYCQQRNNWPLTFGGGTKLEIK
notes: also called 41A09; human antibody 41A9
With B18, the Kd with Cynomolgus monkey CDCP1 stood at 0.013 µM; in test [1], 0.006 µM.
